{"source": "paper PMC11382572", "about": "“Structural and kinetic insights into the stereospecific oxidation of R-2,3-dihydroxypropanesulfonate by DHPS-3-dehydrogenase from Cupriavidus pinatubonensis” (Chemical Science, 2024)", "proteins": {"B1": {"name": "DHPS-3-dehydrogenase (CpHpsN) (Cupriavidus pinatubonensis JMP134) (protein)", "chain": "MISYLKKAEKTPQTETATAQKVVTEMLAEIQARGKDAVRQYAKQLDGWSGDIVLTPDQIREQTKDVPAGVRADIDFAIRQVTDFALAQRESLKEFSVELHPGVTAGQRVLPVNVVGCYAPAGRYAHIASAYMGVATAKAAGVKTVVACSSPFRGQGIHPHVLYAFQAAGADVIMALGGVQAIASMAYGLFTGKPADVVVGPGNKFVAEAKRSLYGQVGIDVFAGPSEVAVIADETADPAIVASDLVGQAEHGHESPAWLFTTSRDLADRVMALVPELIAKLPPTARDAATAAWRDYGEVILCGTREEVVEISDRYASEHLEVHTADLDWWLANLTCYGSLFLGEETTVAFGDKTSGPNHVLPTKGAARYSGGLSVHKFMKTLTWQQMTREATRQIGQVTARISRLEGMEAHARTADDRMAKYFPNASFEMGTPVEV"}}, "assay_type_in_all_cases": "biochemical, Cupriavidus pinatubonensis", "key": {"[1]": {"substrate": "NC(=O)c1ccc[n+]([C@@H]2O[C@H](COP(=O)([O-])OP(=O)(O)OC[C@H]3O[C@@H](n4cnc5c(N)ncnc54)[C@H](O)[C@@H]3O)[C@@H](O)[C@H]2O)c1", "assay": "X-ray crystal structure by soaking (open conformation); Michaelis-Menten kinetics (apparent KM)", "conditions": "Zn2+ nonproductive complex; nicotinamide group disordered, modelled with zero occupancy; varied: cofactor"}, "[2]": {"substrate": "O=CC(O)CS(=O)(=O)O", "assay": "Michaelis-Menten kinetics (apparent KM); LCMS product", "conditions": "Zn2+, NAD+"}, "[3]": {"substrate": "O=S(=O)(O)C[C@H](O)CO", "assay": "purified protein", "conditions": "Zn2+, NAD+"}}, "data": [{"protein": "B1", "values": [{"measurement": "Km", "setting": "[1]", "result": "470 ± 100", "unit": "µM"}, {"measurement": "kcat/Km", "setting": "[1]", "result": "3400 ± 1100", "unit": "M⁻¹ s⁻¹"}, {"measurement": "Km", "setting": "[2]", "result": "360 ± 60", "unit": "µM"}, {"measurement": "kcat/Km", "setting": "[2]", "result": "8600 ± 830", "unit": "M⁻¹ s⁻¹"}, {"measurement": "Km", "setting": "[3]", "result": "1300 ± 150", "unit": "µM"}, {"measurement": "kcat/Km", "setting": "[3]", "result": "750 ± 200", "unit": "M⁻¹ s⁻¹"}]}]}
